From patent US20220040297A1 (Chugai, published 2022)
Where a chain is given by its changes, count along the chain named. Names may count otherwise. Blank lines part the entries; values can stand above or below the binder they belong to.

Molecular target: T1, CD3ε homodimer protein (human, UniProt P07766 23-126, limits assumed, sulfo-tag or biotin label in some ECL assays)
T1 construct: also called human CD3ε homodimer protein; CD3 (CD3ε)
Assay: SPR, CD3ε homodimer on chip;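 also: biacore SPR with antibody variants flowed as analyte over amine-coupled CD3ε homodimer on a CM chip, bound amount of each single-residue H chain variant over that of parent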

T1 sequence (P07766 23-126 limits assumed): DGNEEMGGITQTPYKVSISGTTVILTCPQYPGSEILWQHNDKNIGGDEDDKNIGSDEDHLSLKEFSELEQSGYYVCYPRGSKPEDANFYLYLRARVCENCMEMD

B1: CE115HA000 N54D (antibody, name in Kabat numbering, V domains shown)
VH: QVQLVESGGGVVQPGRSLRLSCAASGFTFSNAWMHWVRQAPGKGLEWVAQIKAKSNDYATYYAESVKGRFTISRDDSKNSLYLQMNSLKTEDTAVYYCRYVHYGAYYGVDAWGQGTTVTVSS
VL: DIVMTQSPLSLPVTPGEPASISCRSSQSLVHSNRNTYLHWYQQKPGQAPRLLIYKVSNRFSGVPDRFSGSGSGTDFTLKISRVEAEDVGVYYCGQGTQVPYTFGQGTKLEIK
ratio of amounts bound vs CE115HA000: 0.62

B2: CE115HA000 Q105E (antibody, name in Kabat numbering, V domains shown)
VH: B1 VH with D57N, Q114E
VL: B1 VL
ratio of amounts bound vs CE115HA000: 0.94

B3: CE115HA000 Q50L (antibody, name in Kabat numbering, V domains shown)
VH: B1 VH with Q50L, D57N
VL: B1 VL
ratio of amounts bound vs CE115HA000: 0.23

B5: CE115HA000 N54Q (antibody, name in Kabat numbering, V domains shown)
VH: B1 VH with D57Q
VL: B1 VL
ratio of amounts bound vs CE115HA000: 0.84

B6: CE115HA000 S52cF (antibody, name in Kabat numbering, V domains shown)
VH: B1 VH with S55F, D57N
VL: B1 VL
ratio of amounts bound vs CE115HA000: 1.13

B7: CE115HA000 S30G (antibody, name in Kabat numbering, V domains shown)
VH: B1 VH with S30G, D57N
VL: B1 VL
ratio of amounts bound vs CE115HA000: 1.01

B8: CE115HA000 R16Q (antibody, name in Kabat numbering, V domains shown)
VH: B1 VH with R16Q, D57N
VL: B1 VL
ratio of amounts bound vs CE115HA000: 0.9

B12: CE115HA000 R16E (antibody, name in Kabat numbering, V domains shown)
VH: B1 VH with R16E, D57N
VL: B1 VL
ratio of amounts bound vs CE115HA000: 0.88

B14: CE115HA000 N54K (antibody, name in Kabat numbering, V domains shown)
VH: B1 VH with D57K
VL: B1 VL
ratio of amounts bound vs CE115HA000: 1.2

B15: CE115HA000 Q50S (antibody, name in Kabat numbering, V domains shown)
VH: B1 VH with Q50S, D57N
VL: B1 VL
ratio of amounts bound vs CE115HA000: 0.24

B20: CE115HA000 Q50D (antibody, name in Kabat numbering, V domains shown)
VH: B1 VH with Q50D, D57N
VL: B1 VL
ratio of amounts bound vs CE115HA000: 0.27

B22: CE115HA000 Q50I (antibody, name in Kabat numbering, V domains shown)
VH: B1 VH with Q50I, D57N
VL: B1 VL
ratio of amounts bound vs CE115HA000: 0.4

B25: CE115HA000 R19T (antibody, name in Kabat numbering, V domains shown)
VH: B1 VH with R19T, D57N
VL: B1 VL
ratio of amounts bound vs CE115HA000: 0.8

B27: CE115HA000 N54G (antibody, name in Kabat numbering, V domains shown)
VH: B1 VH with D57G
VL: B1 VL
ratio of amounts bound vs CE115HA000: 0.98

B29: CE115HA000 S52cG (antibody, name in Kabat numbering, V domains shown)
VH: B1 VH with S55G, D57N
VL: B1 VL
ratio of amounts bound vs CE115HA000: 0.97

B31: CE115HA000 Q50K (antibody, name in Kabat numbering, V domains shown)
VH: B1 VH with Q50K, D57N
VL: B1 VL
ratio of amounts bound vs CE115HA000: 0.33

B32: CE115HA000 N54S (antibody, name in Kabat numbering, V domains shown)
VH: B1 VH with D57S
VL: B1 VL
ratio of amounts bound vs CE115HA000: 0.84

B33: CE115HA000 S30D (antibody, name in Kabat numbering, V domains shown)
VH: B1 VH with S30D, D57N
VL: B1 VL
ratio of amounts bound vs CE115HA000: 0.86

B34: CE115HA000 S52cA (antibody, name in Kabat numbering, V domains shown)
VH: B1 VH with S55A, D57N
VL: B1 VL
ratio of amounts bound vs CE115HA000: 0.96

B35: CE115HA000 N54L (antibody, name in Kabat numbering, V domains shown)
VH: B1 VH with D57L
VL: B1 VL
ratio of amounts bound vs CE115HA000: 0.94

B37: CE115HA000 Q50A (antibody, name in Kabat numbering, V domains shown)
VH: B1 VH with Q50A, D57N
VL: B1 VL
ratio of amounts bound vs CE115HA000: 0.24

B39: CE115HA000 Q50Y (antibody, name in Kabat numbering, V domains shown)
VH: B1 VH with Q50Y, D57N
VL: B1 VL
ratio of amounts bound vs CE115HA000: 0.25

B40: CE115HA000 Q50E (antibody, name in Kabat numbering, V domains shown)
VH: B1 VH with Q50E, D57N
VL: B1 VL
ratio of amounts bound vs CE115HA000: 0.26

B41: CE115HA000 S52cD (antibody, name in Kabat numbering, V domains shown)
VH: B1 VH with S55D, D57N
VL: B1 VL
ratio of amounts bound vs CE115HA000: 0.6

B45: CE115HA000 N54F (antibody, name in Kabat numbering, V domains shown)
VH: B1 VH with D57F
VL: B1 VL
ratio of amounts bound vs CE115HA000: 1.12

Other lines, results leading:

ratio of amounts bound vs CE115HA000: 1
B4: CE115HA000 V11L (antibody, name in Kabat numbering, V domains shown)
VH: B1 VH with V11L, D57N
VL: B1 VL

ratio of amounts bound vs CE115HA000: 1.32
B9: CE115HA000 T57K (antibody, name in Kabat numbering, V domains shown)
VH: B1 VH with D57N, T60K
VL: B1 VL

ratio of amounts bound vs CE115HA000: 0.98
B10: CE115HA000 S52cL (antibody, name in Kabat numbering, V domains shown)
VH: B1 VH with S55L, D57N
VL: B1 VL

ratio of amounts bound vs CE115HA000: 1.19
B11: CE115HA000 S62K (antibody, name in Kabat numbering, V domains shown)
VH: B1 VH with D57N, S65K
VL: B1 VL

ratio of amounts bound vs CE115HA000: 1
B13: CE115HA000 S62P (antibody, name in Kabat numbering, V domains shown)
VH: B1 VH with D57N, S65P
VL: B1 VL

ratio of amounts bound vs CE115HA000: 0.98
B16: CE115HA000 T57A (antibody, name in Kabat numbering, V domains shown)
VH: B1 VH with D57N, T60A
VL: B1 VL

ratio of amounts bound vs CE115HA000: 0.22
B17: CE115HA000 V95S (antibody, name in Kabat numbering, V domains shown)
VH: B1 VH with D57N, V101S
VL: B1 VL

ratio of amounts bound vs CE115HA000: 0.61
B18: CE115HA000 T57I (antibody, name in Kabat numbering, V domains shown)
VH: B1 VH with D57N, T60I
VL: B1 VL

ratio of amounts bound vs CE115HA000: 0.9
B19: CE115HA000 S77T (antibody, name in Kabat numbering, V domains shown)
VH: B1 VH with D57N, S80T
VL: B1 VL

ratio of amounts bound vs CE115HA000: 0.91
B21: CE115HA000 S74P (antibody, name in Kabat numbering, V domains shown)
VH: B1 VH with D57N, S77P
VL: B1 VL

ratio of amounts bound vs CE115HA000: 1.04
B23: CE115HA000 S52cQ (antibody, name in Kabat numbering, V domains shown)
VH: B1 VH with S55Q, D57N
VL: B1 VL

ratio of amounts bound vs CE115HA000: 0.91
B24: CE115HA000 T28S (antibody, name in Kabat numbering, V domains shown)
VH: B1 VH with T28S, D57N
VL: B1 VL

ratio of amounts bound vs CE115HA000: 0.56
B26: CE115HA000 T28D (antibody, name in Kabat numbering, V domains shown)
VH: B1 VH with T28D, D57N
VL: B1 VL

ratio of amounts bound vs CE115HA000: 0.92
B28: CE115HA000 S62E (antibody, name in Kabat numbering, V domains shown)
VH: B1 VH with D57N, S65E
VL: B1 VL

ratio of amounts bound vs CE115HA000: 0.48
B30: CE115HA000 V100cA (antibody, name in Kabat numbering, V domains shown)
VH: B1 VH with D57N, V109A
VL: B1 VL

ratio of amounts bound vs CE115HA000: 0.92
B36: CE115HA000 S62D (antibody, name in Kabat numbering, V domains shown)
VH: B1 VH with D57N, S65D
VL: B1 VL

ratio of amounts bound vs CE115HA000: 0.97
B38: CE115HA000 T57N (antibody, name in Kabat numbering, V domains shown)
VH: B1 VH with D57N, T60N
VL: B1 VL

ratio of amounts bound vs CE115HA000: 0.24
B42: CE115HA000 V95D (antibody, name in Kabat numbering, V domains shown)
VH: B1 VH with D57N, V101D
VL: B1 VL

ratio of amounts bound vs CE115HA000: 0.93
B43: CE115HA000 S52cV (antibody, name in Kabat numbering, V domains shown)
VH: B1 VH with S55V, D57N
VL: B1 VL

ratio of amounts bound vs CE115HA000: 1.19
B44: CE115HA000 S52cK (antibody, name in Kabat numbering, V domains shown)
VH: B1 VH with S55K, D57N
VL: B1 VL
